From paper PMC10984984, “Loss-of-function mutation in PRMT9 causes abnormal synapse development by dysregulation of RNA alternative splicing”

Biological target: T1, SF3B2 peptide R508me0 (unmodified) (UniProt Q13435)
T1 chain: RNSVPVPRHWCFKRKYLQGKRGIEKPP
Assay: EMSA; R508me0; RNA 1 uM, peptide 1.4-140 uM; 20 mM Tris-HCl pH 8.0, 150 mM NaCl, 1.5 mM MgCl2, 0.5 mM EDTA, 100 U/mL RNasin, room temperature, 20 min; 6% native gel in 0.5x TBE
Details: label: 5' 6-FAM

Row | Binder | binding result
1 | CAUAGAAAAAAGUUAAGUUAA (ssRNA) [Stag2 upstream probe A (nonconsensus anchoring site)] | binds
2 | UAAUAGUCAUGCCUUGGUUCA (ssRNA) [Stag2 downstream probe B (consensus anchoring site)] | binds
